Assay results: patent US20230203142A1 (published 2023)

How the values were obtained:
Test in all cases: MST
[1] = target: human ADK (adenosine kinase), recombinant (UniProt P55263 2-362)
[2] = target: human NDPK-A (nucleoside diphosphate kinase A), full-length recombinant (UniProt P15531 2-152)
[3] = target: T1, recombinant human FABP4 (fatty acid binding protein 4) (UniProt P15090 2-132)
T1 chain: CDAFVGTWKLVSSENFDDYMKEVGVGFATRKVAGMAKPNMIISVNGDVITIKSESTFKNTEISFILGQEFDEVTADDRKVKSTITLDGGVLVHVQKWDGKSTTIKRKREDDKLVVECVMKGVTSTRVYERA

Chain of human ADK (adenosine kinase), recombinant (P55263 2-362): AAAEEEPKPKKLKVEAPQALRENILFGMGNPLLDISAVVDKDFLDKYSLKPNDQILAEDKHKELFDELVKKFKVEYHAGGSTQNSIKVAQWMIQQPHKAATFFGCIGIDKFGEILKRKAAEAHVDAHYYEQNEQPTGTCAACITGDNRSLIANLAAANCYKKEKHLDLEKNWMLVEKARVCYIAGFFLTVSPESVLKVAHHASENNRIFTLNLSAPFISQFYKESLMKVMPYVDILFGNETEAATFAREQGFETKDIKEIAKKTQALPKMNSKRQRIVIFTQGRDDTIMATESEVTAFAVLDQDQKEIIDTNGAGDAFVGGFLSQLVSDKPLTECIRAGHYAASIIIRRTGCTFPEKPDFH
Chain of human NDPK-A (nucleoside diphosphate kinase A), full-length recombinant (P15531 other isoform, or with tags, fused parts or gaps): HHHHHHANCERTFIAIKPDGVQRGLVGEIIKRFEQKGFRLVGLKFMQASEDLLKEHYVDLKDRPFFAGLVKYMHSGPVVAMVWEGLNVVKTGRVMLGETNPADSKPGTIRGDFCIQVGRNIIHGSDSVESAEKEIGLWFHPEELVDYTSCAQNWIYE

B1: CA33 (a-Ab) monoclonal antibody (antibody)
heavy: QSVEESGGRLVTPGTPLTLTCTVSGFSLSTYYMSWVRQAPGKGLEWIGIIYPSGSTYCASWAKGRFTISKASTTVDLKITSPTTEDTATYFCARPDNDGTSGYLSGFGLWGQGLVTVSSAKTTPPSVYPLAPGSAAQTNSMVTLGCLVKGYFPEPVTVTWNSGSLSSGVHTFPAVLQSDLYTLSSSVTVPSSTWPSETVTCNVAHPASSTKVDKKIVPRDC
light: DVVMTQTPASVSEPVGGTVTIKCGASEDISRYLVWYQQKPGQPPKRLIYKASTLASGVPSRFKGSGSGTDFTLTISDLECDDAATYYCQCTYGTYAGSFFYSFGGGTEVVVERTDAAPTVSIFPPSSEQLTSGGASVVCFLNNFYPKDINVKWKIDGSERQNGVLNSWTDQDSKDCTYSMSSTLTLTKDEYERHNSYTCEATHKTSTSPIVKSFNRNEC
**Q.** What does the source list for B1?
**A.** EC50 [1]: 1.88 µM; EC50 [2]: 0.143 µM; Kd [3]: 2.86 µM
